For the assay, the target named is human CD47 protein (antigen of the SPR affinity determination) (human, UniProt Q08722 19-139, limits assumed). As to the kind of experiment: affinity for a human CD47 protein (method not given; SPR in Example 3).

Kd data for two molecules are collected here from patent US20240368279A1 (SHANGHAI SINOBAY BIOTECHNOLOGY, published 2024).

B1: Hu004-65 antibody (full-length human IgG1, kappa) (antibody, V domains shown)
VH: EVQLVESGGGLVQPGGSLRLSCAASGFTFSGYGMSWVRQAPGKGLEWVATITSGGTYTYYPDSVKGRFTISRDNAKNSLYLQMNSLRAEDTAVYYCARSLAGNAMDYWGQGTLVTVSS
VL: DIQMTQSPSSLSASVGDRVTITCRASQSITKSLNWYQQKPGKAPRLLIRVASTLQSGVPSRFSGSGSGTDFTLTISSLQPEDFATYYCQHSYSFGQGTKLEIT
notes: also called candidate antibody Hu004-65; monoclonal antibody Hu004-65
For orientation: Kd means the free concentration of one partner at which half of the binding sites on the other are occupied at equilibrium, for simple one-to-one binding. Higher therefore signals lower affinity. The molecule B1 yielded a Kd of 146 nM.

B2: Hu004-101 antibody (full-length human IgG1, kappa) (antibody, V domains shown)
VH: EVQLVESGGGLVQPGGSLRLSCAASGFTFSGYGMSWVRQAPGKGLEWVATITSGGTYTYYPDSVKGRFTISRDNAKNSLYLQMNSLRAEDTAVYYCARSLAGNAMDYWGQGTLVTVSS
VL: DIQMTQSPSTLSASVGDRVTITCRASQSISNWLAWYQQKPGEAPKLLIYKASNLESGVPSRFSGSGSGTEFTLTISSLQPDDFATYYCQQFGTFGQGTKVEIK
B2 registered a dissociation constant Kd of 320 nM.
